Values belong to the substance of their own block, whether it stands above or below them.
What was measured:
14-3-3 = 14-3-3 (UniProt P63104); assay: AUC; sedimentation velocity, SEC buffer, 20 °C, 42 000 rpm; 14-3-3 + P-PI4KB + Rab11; stoichiometries independent of Rab11 nucleotide state
[1] = molecular target: phosphorylated PI4KB (residues 128-799, internal deletion 423-522, T292R, phosphorylated at S294 by PKA) (human) (UniProt Q9UBF8); assay: as above
PI4KB (Homo sapiens) = PI4KB (Homo sapiens) (UniProt Q9UBF8); settings: cited from earlier work
Chain of PI4KB (Homo sapiens) (Q9UBF8 2-816): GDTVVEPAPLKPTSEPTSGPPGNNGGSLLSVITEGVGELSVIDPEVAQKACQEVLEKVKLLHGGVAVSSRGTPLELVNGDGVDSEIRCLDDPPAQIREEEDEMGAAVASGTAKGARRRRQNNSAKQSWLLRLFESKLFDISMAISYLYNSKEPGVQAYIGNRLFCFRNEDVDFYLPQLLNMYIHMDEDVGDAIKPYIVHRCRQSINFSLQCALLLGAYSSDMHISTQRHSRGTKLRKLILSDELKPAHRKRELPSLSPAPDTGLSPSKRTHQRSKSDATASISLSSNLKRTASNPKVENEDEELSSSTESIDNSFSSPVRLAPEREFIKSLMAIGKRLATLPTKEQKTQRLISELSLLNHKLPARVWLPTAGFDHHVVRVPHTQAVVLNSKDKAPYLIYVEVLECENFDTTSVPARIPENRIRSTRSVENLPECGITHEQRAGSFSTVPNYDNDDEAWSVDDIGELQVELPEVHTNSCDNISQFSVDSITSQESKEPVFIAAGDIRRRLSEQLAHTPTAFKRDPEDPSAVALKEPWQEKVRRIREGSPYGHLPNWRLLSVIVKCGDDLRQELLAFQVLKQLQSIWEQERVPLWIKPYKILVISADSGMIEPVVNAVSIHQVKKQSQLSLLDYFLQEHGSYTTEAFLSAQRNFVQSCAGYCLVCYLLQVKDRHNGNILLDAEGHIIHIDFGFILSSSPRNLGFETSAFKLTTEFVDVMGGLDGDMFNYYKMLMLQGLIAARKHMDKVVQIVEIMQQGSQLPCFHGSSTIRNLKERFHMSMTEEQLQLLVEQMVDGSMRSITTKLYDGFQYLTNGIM

[2] = molecular target: pseudo-wt PI4KB labeled with Atto488 (human) (UniProt Q9UBF8); assay: fluorescence cross-correlation spectroscopy (FCCS); on GUV membrane; Atto488-PI4KB attached by tethered ACBD3; mCherry-Rab11-His tethered to the membrane via His tag; proteins approximately 50 nM
Chain of pseudo-wt PI4KB labeled with Atto488 (human) (Q9UBF8 other isoform, or with tags, fused parts or gaps): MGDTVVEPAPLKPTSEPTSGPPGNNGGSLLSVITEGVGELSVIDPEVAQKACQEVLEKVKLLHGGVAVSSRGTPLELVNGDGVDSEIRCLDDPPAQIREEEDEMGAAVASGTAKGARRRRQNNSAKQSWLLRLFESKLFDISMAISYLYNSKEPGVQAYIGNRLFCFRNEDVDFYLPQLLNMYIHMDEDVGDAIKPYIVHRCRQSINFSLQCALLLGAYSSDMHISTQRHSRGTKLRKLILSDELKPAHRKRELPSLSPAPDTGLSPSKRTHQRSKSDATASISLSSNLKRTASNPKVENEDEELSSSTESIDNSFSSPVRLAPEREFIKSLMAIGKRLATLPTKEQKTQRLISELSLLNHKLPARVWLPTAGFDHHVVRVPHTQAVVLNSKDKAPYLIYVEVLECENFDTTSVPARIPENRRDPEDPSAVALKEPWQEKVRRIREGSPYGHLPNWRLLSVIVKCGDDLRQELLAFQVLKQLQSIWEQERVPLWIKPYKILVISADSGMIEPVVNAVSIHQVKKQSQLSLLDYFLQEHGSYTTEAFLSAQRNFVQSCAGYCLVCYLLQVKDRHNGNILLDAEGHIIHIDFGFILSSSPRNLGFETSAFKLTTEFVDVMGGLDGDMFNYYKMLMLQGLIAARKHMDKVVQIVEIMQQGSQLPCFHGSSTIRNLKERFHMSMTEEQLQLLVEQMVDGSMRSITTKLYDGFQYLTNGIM

[3] = molecular target: phosphorylated PI4KB (residues 128-799, internal deletion 423-522, T292R, phosphorylated at S294 by PKA) (human) (UniProt Q9UBF8); assay: AUC; sedimentation velocity, SEC buffer, 20 °C, 42 000 rpm; P-PI4KB alone (20 µM) and with Rab11; stoichiometries independent of Rab11 nucleotide state

Chain of phosphorylated PI4KB (residues 128-799, internal deletion 423-522, T292R, phosphorylated at S294 by PKA) (human) (Q9UBF8 other isoform, or with tags, fused parts or gaps with the stated changes): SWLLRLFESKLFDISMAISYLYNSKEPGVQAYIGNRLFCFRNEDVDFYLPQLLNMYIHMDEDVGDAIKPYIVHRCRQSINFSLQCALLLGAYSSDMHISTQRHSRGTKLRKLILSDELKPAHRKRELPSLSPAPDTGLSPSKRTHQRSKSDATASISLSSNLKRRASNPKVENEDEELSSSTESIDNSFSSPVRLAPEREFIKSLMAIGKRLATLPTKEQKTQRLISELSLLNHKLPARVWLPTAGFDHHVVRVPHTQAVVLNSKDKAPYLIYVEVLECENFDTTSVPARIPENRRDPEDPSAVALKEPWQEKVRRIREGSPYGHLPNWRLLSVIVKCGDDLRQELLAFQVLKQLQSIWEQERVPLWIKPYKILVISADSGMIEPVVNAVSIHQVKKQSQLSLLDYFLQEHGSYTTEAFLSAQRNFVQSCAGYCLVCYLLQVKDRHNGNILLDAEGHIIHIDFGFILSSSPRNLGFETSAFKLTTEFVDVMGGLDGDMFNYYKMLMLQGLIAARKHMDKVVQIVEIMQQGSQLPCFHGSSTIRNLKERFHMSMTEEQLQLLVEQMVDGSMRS
Chain of ACBD3 (Q9H3P7 whole entry): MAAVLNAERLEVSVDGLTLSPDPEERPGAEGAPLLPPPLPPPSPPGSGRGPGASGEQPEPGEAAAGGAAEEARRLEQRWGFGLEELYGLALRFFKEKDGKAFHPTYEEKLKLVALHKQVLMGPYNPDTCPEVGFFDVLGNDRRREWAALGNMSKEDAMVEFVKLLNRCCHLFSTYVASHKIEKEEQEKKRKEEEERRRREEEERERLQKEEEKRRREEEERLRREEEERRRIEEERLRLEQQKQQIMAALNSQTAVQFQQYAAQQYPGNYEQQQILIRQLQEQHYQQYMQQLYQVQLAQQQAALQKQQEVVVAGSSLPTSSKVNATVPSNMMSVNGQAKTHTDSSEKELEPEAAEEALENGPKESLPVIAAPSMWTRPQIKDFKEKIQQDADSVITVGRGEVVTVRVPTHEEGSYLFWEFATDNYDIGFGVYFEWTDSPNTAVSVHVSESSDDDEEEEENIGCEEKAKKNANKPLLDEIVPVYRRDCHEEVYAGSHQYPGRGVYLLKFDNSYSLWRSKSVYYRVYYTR

stoichiometry N (14-3-3): 2
stoichiometry N (14-3-3 chains per PI4KB) [1]: 2
Substance: 14-3-3 (from UniProt P63104 1-230) (natural protein)

Substance: ACBD3 (from UniProt Q9H3P7)
Kd (PI4KB (Homo sapiens)): 300 nM

percent of Rab11 in the complex [2]: 10%
Substance: mCherry-Rab11-His (membrane tethered) (from UniProt P62491 1-216) (natural protein)

stoichiometry N [3]: 1
stoichiometry N [1]: 1
Substance: Rab11 (from UniProt P62491 1-216) (natural protein)
